Data published in publication PMC6234480.
Residue numbers refer to the chain shown, from its start. Names may count otherwise.

B1: N‐TIMP3 (13.9 kDa N‐domain; aa 1‐120) (domain or fragment)
chain: CTCSPSHPQDAFCNSDIVIRAKVVGKKLVKEGPFGTLVYTIKQMKMYRGFTKMPHVQYIHTEASESLCGLKLEVNKYQYLLTGRVYDGKMYTGLCNFVERWDQLTLSQRKGLNYRYHLGC
B2: N‐PEG (PEGylated N‐TIMP3) (domain or fragment)
chain: B1 chain
modifications: PEG, size and site not stated
B3: N‐HSA (N‐TIMP3 fused with human serum albumin) (protein)
chain: B1 chain
B4: N‐Fc (N‐TIMP3 fused with Fc) (Fc fusion)
chain: B1 chain
B5: Wild‐type TIMP3 (Tissue Inhibitor of Metalloproteinase 3) (natural protein)
chain: CTCSPSHPQDAFCNSDIVIRAKVVGKKLVKEGPFGTLVYTIKQMKMYRGFTKMPHVQYIHTEASESLCGLKLEVNKYQYLLTGRVYDGKMYTGLCNFVERWDQLTLSQRKGLNYRYHLGCNCKIKSCYYLPCFVTSKNECLWTDMLSNFGYPGYQSKHYACIRQKGGYCSWYRGWAPPDKSIINATDP
modifications: endogenous glycosylation site at Asn184
B6: v2‐HSA (TIMP3v2 fused with human serum albumin) (protein)
chain: B5 chain with K22S, F34N
modifications: additional glycosylation site (F34N)
B7: TIMP3v82 (H55N/Q57T/K71N/E73T/D87N/K89T/R115T) (natural protein)
chain: B5 chain with H55N, Q57T, K71N, E73T, D87N, K89T, R115T
modifications: additional glycosylation sites, site‐specific glycosylation confirmed by mass spec analysis (data not shown); endogenous glycosylation site at Asn184
B8: WT‐HSA (wild‐type TIMP3 fused with human serum albumin) (protein)
chain: B5 chain
B9: v82‐HSA (TIMP3v82 fused with human serum albumin) (protein)
chain: B5 chain with H55N, Q57T, K71N, E73T, D87N, K89T, R115T
modifications: additional glycosylation sites
B10: v2‐Fc (TIMP3v2 fused with Fc) (Fc fusion)
chain: B5 chain with K22S, F34N
modifications: additional glycosylation site (F34N)
B11: TIMP3v2 (K22S/F34N TIMP3) (natural protein)
chain: B5 chain with K22S, F34N
modifications: additional glycosylation site (F34N), >95% occupancy by mass spectrometry; endogenous glycosylation site at Asn184
B12: v82‐Fc (v82 with Fc fused in the C‐terminus) (Fc fusion)
chain: B5 chain with H55N, Q57T, K71N, E73T, D87N, K89T, R115T
modifications: additional glycosylation sites
B13: v2‐PEG (TIMP3v2 PEGylated with 20 kDa polyethylene glycol) (natural protein)
chain: B5 chain with K22S, F34N
modifications: 20 kDa polyethylene glycol (PEG), site not stated; additional glycosylation site (F34N)

The binders below were run against catalytic domain of human MMP9 (human).
catalytic domain of human MMP9 (human), sequence (P14780 20-707): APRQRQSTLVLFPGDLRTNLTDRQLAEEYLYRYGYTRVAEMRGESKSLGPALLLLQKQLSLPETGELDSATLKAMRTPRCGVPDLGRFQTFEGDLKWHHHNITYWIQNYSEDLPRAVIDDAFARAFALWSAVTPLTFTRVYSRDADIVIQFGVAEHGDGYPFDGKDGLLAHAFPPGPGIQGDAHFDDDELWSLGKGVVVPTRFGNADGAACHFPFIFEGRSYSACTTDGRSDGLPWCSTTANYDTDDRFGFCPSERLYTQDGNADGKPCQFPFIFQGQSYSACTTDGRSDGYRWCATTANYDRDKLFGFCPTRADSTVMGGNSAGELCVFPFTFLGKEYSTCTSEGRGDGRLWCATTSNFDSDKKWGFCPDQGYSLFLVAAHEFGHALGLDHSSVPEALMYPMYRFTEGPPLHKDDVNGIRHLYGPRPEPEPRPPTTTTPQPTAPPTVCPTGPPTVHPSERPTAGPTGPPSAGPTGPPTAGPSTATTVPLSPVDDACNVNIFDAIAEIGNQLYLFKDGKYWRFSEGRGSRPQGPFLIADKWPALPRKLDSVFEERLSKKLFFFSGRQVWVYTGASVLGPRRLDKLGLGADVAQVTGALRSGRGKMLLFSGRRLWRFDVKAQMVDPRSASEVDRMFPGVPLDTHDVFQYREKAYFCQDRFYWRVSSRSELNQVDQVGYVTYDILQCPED

Row | IC50 of inhibition of human MMP9 activity (cleavage of 5-FAM/QXL 520 FRET peptide, 37°C) | Binder
1 | 1.5 nM | B1
2 | 0.7 nM | B2
3 | 1.1 nM | B3
4 | 1.6 nM | B4
5 | 0.9 nM | B5
6 | 16 nM | B6
7 | 2.3 nM | B7
8 | 0.6 nM | B8
9 | 7.4 nM | B9
10 | 10 nM | B10
11 | 6.9 nM | B11
12 | 10.5 nM | B12
13 | 9 nM | B13

What follows are binders tested against recombinant human MMP2 (pro‐MMP2 activated with APMA) (human).
recombinant human MMP2 (pro‐MMP2 activated with APMA) (human), sequence (P08253 30-660): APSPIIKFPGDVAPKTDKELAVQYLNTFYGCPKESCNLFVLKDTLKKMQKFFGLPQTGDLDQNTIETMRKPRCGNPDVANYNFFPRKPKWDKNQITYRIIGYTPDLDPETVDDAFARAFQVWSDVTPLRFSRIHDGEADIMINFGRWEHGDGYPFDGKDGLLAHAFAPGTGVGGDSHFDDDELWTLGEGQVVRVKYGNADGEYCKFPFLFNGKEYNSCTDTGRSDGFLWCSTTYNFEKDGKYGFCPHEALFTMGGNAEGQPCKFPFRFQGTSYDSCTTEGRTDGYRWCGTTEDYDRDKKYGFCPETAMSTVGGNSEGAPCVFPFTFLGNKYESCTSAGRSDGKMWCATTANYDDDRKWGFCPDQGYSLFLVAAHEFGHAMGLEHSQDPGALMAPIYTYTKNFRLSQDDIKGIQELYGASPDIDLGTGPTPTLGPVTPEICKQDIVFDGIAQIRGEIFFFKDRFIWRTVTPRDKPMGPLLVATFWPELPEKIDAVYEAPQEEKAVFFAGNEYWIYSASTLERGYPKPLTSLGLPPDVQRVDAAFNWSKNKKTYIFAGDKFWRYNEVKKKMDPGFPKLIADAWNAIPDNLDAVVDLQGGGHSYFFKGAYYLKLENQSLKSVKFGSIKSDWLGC

Row | IC50 of inhibition of human MMP2 activity (cleavage of 5-FAM/QXL 520 FRET peptide, 90 min, 37°C) | Binder
14 | 5.8 nM | B1
15 | 9.8 nM | B2
16 | 6 nM | B3
17 | 9.7 nM | B4
18 | 0.6 nM | B5
19 | 5.1 nM | B6
20 | 1 nM | B7
21 | 0.8 nM | B8
22 | 1.6 nM | B9
23 | 0.9 nM | B10
24 | 0.9 nM | B11
25 | 2.7 nM | B12
26 | 0.4 nM | B13

Each binder was assayed against recombinant rat MMP9 (rat pro‐MMP9) (rat) (UniProt P50282).
UniProt P50282, sequence (P50282 20-708): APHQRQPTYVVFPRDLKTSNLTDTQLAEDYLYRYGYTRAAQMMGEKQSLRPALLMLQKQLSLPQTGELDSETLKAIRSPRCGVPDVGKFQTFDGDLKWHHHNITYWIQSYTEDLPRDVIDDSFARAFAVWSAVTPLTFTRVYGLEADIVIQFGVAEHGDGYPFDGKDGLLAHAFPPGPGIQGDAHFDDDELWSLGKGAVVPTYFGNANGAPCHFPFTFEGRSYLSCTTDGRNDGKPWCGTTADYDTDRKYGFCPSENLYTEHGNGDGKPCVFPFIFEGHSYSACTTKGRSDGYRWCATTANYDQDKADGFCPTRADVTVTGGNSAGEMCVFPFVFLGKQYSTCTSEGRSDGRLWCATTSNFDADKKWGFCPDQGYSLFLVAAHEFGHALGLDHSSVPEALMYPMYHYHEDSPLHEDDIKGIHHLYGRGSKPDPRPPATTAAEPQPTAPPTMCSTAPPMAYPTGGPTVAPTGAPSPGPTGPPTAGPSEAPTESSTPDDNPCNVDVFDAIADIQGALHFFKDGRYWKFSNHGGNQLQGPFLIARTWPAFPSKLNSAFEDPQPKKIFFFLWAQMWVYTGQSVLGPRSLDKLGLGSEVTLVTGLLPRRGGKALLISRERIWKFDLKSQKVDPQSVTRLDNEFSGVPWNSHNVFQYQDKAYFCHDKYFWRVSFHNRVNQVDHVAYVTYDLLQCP

Row | IC50 of inhibition of rat MMP9 activity (cleavage of 5-FAM/QXL 520 FRET peptide, 37°C) | Binder
27 | 2.4 nM | B1
28 | 1.3 nM | B2
29 | 10.8 nM | B3
30 | 0.9 nM | B5
31 | 65 nM | B6
32 | 14.3 nM | B7
33 | 50.8 nM | B8
34 | 152 nM | B9
35 | 36 nM | B10
36 | 15.5 nM | B11
37 | 77 nM | B12
38 | 60 nM | B13

Each binder was assayed against human recombinant TACE (TNFα converting enzyme) (human) (UniProt P78536).
UniProt P78536, sequence (P78536 18-824): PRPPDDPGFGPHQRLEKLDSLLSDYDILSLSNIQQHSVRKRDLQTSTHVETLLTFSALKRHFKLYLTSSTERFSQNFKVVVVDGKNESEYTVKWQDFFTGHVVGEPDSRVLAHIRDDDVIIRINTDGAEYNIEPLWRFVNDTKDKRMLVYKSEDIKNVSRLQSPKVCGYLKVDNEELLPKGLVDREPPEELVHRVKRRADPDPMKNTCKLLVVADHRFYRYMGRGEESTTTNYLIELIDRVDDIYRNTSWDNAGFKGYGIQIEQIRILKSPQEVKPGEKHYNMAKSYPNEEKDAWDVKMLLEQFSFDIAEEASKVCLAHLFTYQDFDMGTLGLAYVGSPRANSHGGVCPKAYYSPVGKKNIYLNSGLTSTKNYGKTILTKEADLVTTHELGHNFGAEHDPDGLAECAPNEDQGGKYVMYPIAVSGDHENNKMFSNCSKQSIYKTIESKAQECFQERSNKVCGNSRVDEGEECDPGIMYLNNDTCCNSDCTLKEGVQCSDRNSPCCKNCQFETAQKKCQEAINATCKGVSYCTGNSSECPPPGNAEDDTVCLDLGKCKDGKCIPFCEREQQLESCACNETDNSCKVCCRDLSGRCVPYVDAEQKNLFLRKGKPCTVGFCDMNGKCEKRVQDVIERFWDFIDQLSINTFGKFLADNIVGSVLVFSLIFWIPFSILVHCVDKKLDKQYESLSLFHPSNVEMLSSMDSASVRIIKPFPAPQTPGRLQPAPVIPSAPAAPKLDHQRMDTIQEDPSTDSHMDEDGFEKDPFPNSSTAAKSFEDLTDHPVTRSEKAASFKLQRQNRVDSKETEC

Row | IC50 of inhibition of human TACE activity (SensoLyte 520 TACE fluorimetric kit) | Binder
39 | 59 nM | B1
40 | 197 nM | B2
41 | 195 nM | B3
42 | 59 nM | B5
43 | 6800 nM | B6
44 | 29 nM | B7
45 | 12.1 nM | B8
46 | 145 nM | B9
47 | 618 nM | B10
48 | 341 nM | B11
49 | 156 nM | B12
50 | 123 nM | B13

These binders were tested against recombinant rat MMP2 (pro‐MMP2 activated with APMA) (rat).
recombinant rat MMP2 (pro‐MMP2 activated with APMA) (rat), sequence (P33436 110-662): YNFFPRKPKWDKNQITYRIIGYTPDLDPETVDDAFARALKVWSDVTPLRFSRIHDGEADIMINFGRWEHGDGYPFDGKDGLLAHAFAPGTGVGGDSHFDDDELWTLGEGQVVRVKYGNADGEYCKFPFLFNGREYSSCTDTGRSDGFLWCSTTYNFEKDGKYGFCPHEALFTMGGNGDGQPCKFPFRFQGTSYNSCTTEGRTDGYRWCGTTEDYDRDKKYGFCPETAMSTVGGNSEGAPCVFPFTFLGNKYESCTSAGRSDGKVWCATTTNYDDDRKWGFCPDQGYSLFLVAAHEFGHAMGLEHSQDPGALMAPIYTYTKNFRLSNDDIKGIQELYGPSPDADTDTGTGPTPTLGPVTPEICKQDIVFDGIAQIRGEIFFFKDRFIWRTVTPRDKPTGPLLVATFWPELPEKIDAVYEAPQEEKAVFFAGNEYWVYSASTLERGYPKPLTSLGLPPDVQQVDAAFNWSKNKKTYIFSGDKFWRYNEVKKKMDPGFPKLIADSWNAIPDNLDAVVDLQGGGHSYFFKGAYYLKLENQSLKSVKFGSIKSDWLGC

Row | IC50 of inhibition of rat MMP2 activity (cleavage of 5-FAM/QXL 520 FRET peptide, 90 min, 37°C) | Binder
51 | 3.4 nM | B1
52 | 1.7 nM | B2
53 | 3.6 nM | B3
54 | 1.4 nM | B5
55 | 0.7 nM | B6
56 | 0.2 nM | B7
57 | 0.2 nM | B8
58 | 0.3 nM | B9
59 | 0.9 nM | B10
60 | 0.5 nM | B11
61 | 1 nM | B12
62 | 0.1 nM | B13
